Test results published in patent publication US20220306758A1 (Regeneron, published 2022).

T1: human BCMA on cells (endogenous, on multiple myeloma and lymphoma cell lines) (human, UniProt Q02223 1-184)
T1 sequence: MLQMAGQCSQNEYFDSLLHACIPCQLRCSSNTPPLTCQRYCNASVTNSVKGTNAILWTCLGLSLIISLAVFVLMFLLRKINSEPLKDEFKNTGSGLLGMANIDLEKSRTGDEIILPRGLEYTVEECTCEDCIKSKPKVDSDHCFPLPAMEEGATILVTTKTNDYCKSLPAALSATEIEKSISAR

T2: mouse BCMA-MFC (BCMA with C-terminal mFc tag) (mouse)
T2 construct: Tested at 30 nM only
T2 chain: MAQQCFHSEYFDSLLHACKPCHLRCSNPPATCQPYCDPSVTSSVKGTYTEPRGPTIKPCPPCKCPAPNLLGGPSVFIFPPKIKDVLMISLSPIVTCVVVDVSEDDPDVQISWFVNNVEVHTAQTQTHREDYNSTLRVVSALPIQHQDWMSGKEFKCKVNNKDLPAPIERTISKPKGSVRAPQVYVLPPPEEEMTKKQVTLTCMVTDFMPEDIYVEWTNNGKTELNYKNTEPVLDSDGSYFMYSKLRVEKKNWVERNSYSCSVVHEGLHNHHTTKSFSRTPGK

T3: human BCMA-MMH (extracellular domain of human BCMA with C-terminal myc-myc-hexahistidine tag) (human)
T3 construct: Monomeric antigen; the entry holds the ectodomain and the myc-myc-His tag; also called hBCMA.mmh; hBCMA.mmH
T3 chain: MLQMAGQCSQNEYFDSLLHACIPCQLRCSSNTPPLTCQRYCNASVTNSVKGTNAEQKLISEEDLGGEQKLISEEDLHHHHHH

T4: human BCMA-MFC (extracellular domain of human BCMA with C-terminal mFc tag) (human)
T4 construct: also called hBCMA.mFc
T4 chain: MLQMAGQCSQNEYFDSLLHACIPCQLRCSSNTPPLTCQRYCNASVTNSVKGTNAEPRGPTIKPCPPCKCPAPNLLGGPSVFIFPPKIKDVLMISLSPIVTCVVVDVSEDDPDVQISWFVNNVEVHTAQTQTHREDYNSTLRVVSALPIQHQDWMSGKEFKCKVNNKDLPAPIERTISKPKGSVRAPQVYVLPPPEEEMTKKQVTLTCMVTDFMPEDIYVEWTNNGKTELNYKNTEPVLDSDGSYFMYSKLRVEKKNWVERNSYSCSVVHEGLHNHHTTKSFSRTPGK


How the values were obtained:
[1] = target: T1, human BCMA on cells (endogenous, on …); assay: cell-based or functional assay
[2] = target: T1, human BCMA on cells (endogenous, on …); assay: cell-based or functional assay; remark: listed apart in the source
[3] = target: T1, human BCMA on cells (endogenous, on …); assay: cell-based or functional assay; remark: listed apart in the source
[4] = target: T1, human BCMA on cells (endogenous, on …); assay: cell-based or functional assay; remark: listed apart in the source
[5] = target: T5, monkey BCMA-MFC (monkey BCMA with C-terminal mFc tag) (monkey); assay: SPR, Biacore, mAb captured by anti-hFc, 25 C
T5 construct: also called mfBCMA.mFc
Experimental: (§1) The CM5 Biacore sensor surface was derivatized by amine coupling with a monoclonal mouse anti-human Fc antibody (GE, #BR-1008-39) to capture purified anti-BCMA mAbs and anti-BCMA×anti-CD3 bispecific mAbs. All Biacore binding studies were performed in a buffer composed of 0.01M HEPES pH 7.4, 0.15M NaCl, 3 mM EDTA, 0.05% v/v Surfactant P20 (HBS-ET running buffer). […] Antigen samples were then injected over the anti-BCMA and anti-BCMA×anti-CD3 bispecific mAbs captured surfaces at a flow rate of 30 μL/minute. Antibody-reagent association was monitored for 5 minutes while dissociation in HBS-ET running buffer was monitored for 10 minutes. All of the binding kinetics experiments were performed at 25° C. Kinetic association (kₐ) and dissociation (kd) rate constants were determined by fitting the real-time sensorgrams to a 1:1 binding model using Scrubber 2.0c curve fitting software. Binding dissociation equilibrium constants (KD) and dissociative half-lives (t½) were calculated from the kinetic rate constants as: […]

[6] = target: T2, mouse BCMA-MFC (BCMA with C-terminal …); assay: SPR, Biacore, mAb captured by anti-hFc, 25 C
Experimental: as §1

[7] = target: T3, human BCMA-MMH (extracellular domain of …); assay: SPR, Biacore, mAb captured by anti-hFc, 25 C
Experimental: as §1

[8] = target: T4, human BCMA-MFC (extracellular domain of …); assay: SPR, Biacore, mAb captured by anti-hFc, 25 C
Experimental: as §1

[9] = target: T6, human CD3 on Jurkat cells and primary human CD8+ T cells (human, UniProt P07766 23-207; P04234 22-171; P20963 22-164; P09693 23-182); assay: flow cytometry on Jurkat cells (human CD3), median EC50, n=5
T6 construct: Endogenous CD3 complex on cells; also called hCD3; Jurkat-hCD3
Experimental: Flow cytometric analysis was utilized to determine binding of BCMA×CD3 bispecific antibodies to human and cynomolgus CD3 (Jurkat cells, mfCD3 engineered Jurkat cells, primary human CD8+ and cynomolgus CD8+ T cells). Briefly, 1e05 cells/well were incubated in the presence of FACS wash with block (PBS+1% filtered FBS+5% mouse serum) with a serial dilution of BCMA×CD3 and control antibodies for 30 minutes on ice. After incubation, the cells were washed twice with cold FACS wash (PBS+1% filtered FBS) and bound antibody was detected by incubating with Alexa647-conjugated anti-human secondary antibody on ice for an additional 30 minutes. Wells containing no antibody or secondary only were used as a control. For the detection of monkey and human T cells, a cocktail of human and cynomolgus cross-reactive antibodies to CD4, CD8 and CD16 was added to the anti-human secondary. After incubation, cells were washed, re-suspended in 200 μL cold PBS containing 1% filtered FBS and analyzed by flow cytometry on a BD FACS Canto II. Cells were gated by FSC-H by FSC-A to select singlet events, followed by side and forward scatters to select for live events. For monkey T cells, additional gating on CD8+/CD16− cells was performed.
EC50 values for FACS binding were calculated using 4-parameter non-linear regression analysis in Prism software.

T5 sequence (chain, as listed by the source limits assumed): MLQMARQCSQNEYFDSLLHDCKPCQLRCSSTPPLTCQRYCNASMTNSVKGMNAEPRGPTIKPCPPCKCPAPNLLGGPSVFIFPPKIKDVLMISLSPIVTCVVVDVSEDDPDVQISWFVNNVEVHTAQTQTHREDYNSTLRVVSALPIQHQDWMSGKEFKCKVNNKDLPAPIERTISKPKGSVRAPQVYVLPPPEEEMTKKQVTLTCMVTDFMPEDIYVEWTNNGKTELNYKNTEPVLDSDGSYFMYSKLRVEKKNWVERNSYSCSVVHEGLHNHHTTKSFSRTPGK
T6 sequence (P07766 23-207 limits assumed, chain 1 of 4): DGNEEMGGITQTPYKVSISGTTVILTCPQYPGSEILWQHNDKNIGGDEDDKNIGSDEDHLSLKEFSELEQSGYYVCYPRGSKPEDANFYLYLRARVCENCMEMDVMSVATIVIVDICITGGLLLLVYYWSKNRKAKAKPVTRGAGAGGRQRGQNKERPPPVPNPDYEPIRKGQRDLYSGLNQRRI
T6 sequence (P04234 22-171 limits assumed, chain 2 of 4): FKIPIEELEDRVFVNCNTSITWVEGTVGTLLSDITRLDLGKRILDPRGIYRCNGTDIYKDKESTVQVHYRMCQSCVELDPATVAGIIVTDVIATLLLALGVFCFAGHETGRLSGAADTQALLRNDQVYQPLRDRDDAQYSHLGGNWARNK
T6 sequence (P20963 22-164 limits assumed, chain 3 of 4): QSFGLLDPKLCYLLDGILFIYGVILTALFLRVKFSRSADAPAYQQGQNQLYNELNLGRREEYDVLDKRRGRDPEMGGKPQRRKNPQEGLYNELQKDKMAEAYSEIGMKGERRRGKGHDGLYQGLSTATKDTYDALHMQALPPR
T6 sequence (P09693 23-182 limits assumed, chain 4 of 4): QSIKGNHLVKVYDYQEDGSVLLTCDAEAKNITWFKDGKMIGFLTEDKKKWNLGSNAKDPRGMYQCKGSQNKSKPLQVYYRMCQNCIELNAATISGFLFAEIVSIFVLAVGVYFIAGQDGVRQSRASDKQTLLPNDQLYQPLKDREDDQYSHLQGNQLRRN

Binder | EC50 of NFAT-luciferase activity, Jurkat/NFATLuc reporter cells with MOLP-8 cells [1] | EC50 of NFAT-luciferase activity, Jurkat/NFATLuc reporter cells with RPMI-8226 cells [1] | EC50 of NFAT-luciferase activity, Jurkat/NFATLuc reporter cells with Raji cells [1] | median EC50 of % Survival, H929 target cells, human effector cells (FACS cytotoxicity) [2] | median EC50 of % Survival, MM1S target cells, human effector cells (FACS cytotoxicity) [2] | median EC50 of % Survival, U266 target cells, human effector cells (FACS cytotoxicity) [2] | median EC50 of % T activation (CD25 on CD8+ T cells), H929 target cells, human effector cells [2] | median EC50 of % T activation (CD25 on CD8+ T cells), MM1S target cells, human effector cells [2] | median EC50 of % T activation (CD25 on CD8+ T cells), U266 target cells, human effector cells [2] | median EC50 of % Survival, Molp8 target cells, human effector cells (FACS cytotoxicity) [3] | median EC50 of % Survival, RPMI8226 target cells, human effector cells (FACS cytotoxicity) [3] | median EC50 of % T activation (CD25 on CD8+ T cells), Molp8 target cells, human effector cells [3] | median EC50 of % T activation (CD25 on CD8+ T cells), RPMI8226 target cells, human effector cells [3] | median EC50 of % Survival, H929 target cells, cynomolgus effector cells (FACS cytotoxicity) [4] | median EC50 of % T activation, H929 target cells, cynomolgus effector cells [4] | 30 nM mfBCMA.mFc Bind (RU) [5] | Kd [5] | koff [5] | kon [5] | t½ [5] | further results
REGN5458 (bsAb25441D), anti-BCMA x anti-CD3 bispecific antibody (bispecific antibody, V domains shown, Two different heavy chains paired with a common light chain; human Fc (captured by anti-human Fc in SPR); also called bsAb25441D9; mAb25441D) VH 1: EVQLVESGGGLVQPGGSLRLSCAASGFTFSNFWMTWVRQAPGKGLEWVANMNQDGSEKYYVDSVKGRFTISRDNAKSSLYLQMNSLRAEDTAVYYCARDREYCISTSCYDDFDYWGQGTLVTVSS VH 2: EVQLVESGGGLVQPGRSLRLSCAASGFTFDDYSMHWVRQAPGKGLEWVSGISWNSGSKGYADSVKGRFTISRDNAKNSLYLQMNSLRAEDTALYYCAKYGSGYGKFYHYGLDVWGQGTTVTVSS VL: not shown | 1400 pM | 610 pM | 1600 pM | 103 pM | 64.6 pM | 328 pM | 211 pM | 70.6 pM | 107 pM | 707 pM | 34.5 pM | 1100 pM | 64.9 pM | 23.4 pM | 68.3 pM | 108 RU | 167 pM | 8.8e-05 s⁻¹ | 528000 M⁻¹ s⁻¹ | 2.19 h | 30 nM mfBCMA.mFc Bind (RU) (mouse BCMA-MFC by the table's title) [6]: 2.7 RU; binding result [6]: no binding (tested: 30 nM); 90 nM hBCMA.mmh Bind (RU) [7]: 19.9 RU; Kd [7]: 1060 pM; koff [7]: 0.000874 s⁻¹; kon [7]: 827000 M⁻¹ s⁻¹; t½ [7]: 0.22 h; 30 nM hBCMA.mFc Bind (RU) [8]: 107 RU; Kd [8]: ≤ 22.3 pM; koff [8]: ≤ 1e-05 s⁻¹; kon [8]: 448000 M⁻¹ s⁻¹; t½ [8]: ≤ 19.2 h; EC50 [9]: 15000 pM
REGN5459 (bsAb25442D), anti-BCMA x anti-CD3 bispecific antibody (bispecific antibody, V domains shown, also called mAb25442D; mAb25442D-A647) VH 1: EVQLVESGGGLVQPGGSLRLSCAASGFTFSNFWMTWVRQAPGKGLEWVANMNQDGSEKYYVDSVKGRFTISRDNAKSSLYLQMNSLRAEDTAVYYCARDREYCISTSCYDDFDYWGQGTLVTVSS VH 2: EVQLVESGGGLVQPGRSLRLSCAASGFTFDDYSMHWVRQAPGKGLEWVSGISWNSGSIGYADSVKGRFTISRDNAKNSLYLQMNSLRAEDTALYYCAKYGSGYGKFYYYGMDVWGQGTTVTVSS VL: not shown | 11000 pM | 2600 pM | 7400 pM | 301 pM | 288 pM | 1660 pM | 300 pM | 458 pM | 469 pM | 1360 pM | 106 pM | 6470 pM | 750 pM | 69.2 pM | 158 pM | 97 RU | 148 pM | 7.15e-05 s⁻¹ | 482000 M⁻¹ s⁻¹ | 2.69 h | 30 nM mfBCMA.mFc Bind (RU) (mouse BCMA-MFC by the table's title) [6]: 2.4 RU; binding result [6]: no binding (tested: 30 nM); 90 nM hBCMA.mmh Bind (RU) [7]: 17 RU; Kd [7]: 1380 pM; koff [7]: 0.00101 s⁻¹; kon [7]: 730000 M⁻¹ s⁻¹; t½ [7]: 0.192 h; 30 nM hBCMA.mFc Bind (RU) [8]: 96.8 RU; Kd [8]: ≤ 22.3 pM; koff [8]: ≤ 1e-05 s⁻¹; kon [8]: 449000 M⁻¹ s⁻¹; t½ [8]: ≤ 19.2 h; EC50 [9]: 558000 pM
